# According to patent US10934559B2, “Hypersensitive ABA receptors” (The Regents of the University of California, priority 2014, dated 2021):
# Where a chain is given by its changes, count along the chain named. Names and notes keep the numbering of the source. Like-named read-outs stand apart in the source and are kept apart here.
# B1: A160V: PYR1 mutant A160V, SEQ ID NO:141; for ITC the cleaved recombinant protein with NH2-terminal QS appendage (protein)
# chain: MPSELTPEERSELKNSIAEFHTYQLDPGSCSSLHAQRIHAPPELVWSIVRRFDKPQTYKHFIKSCSVEQNFEMRVGCTRDVIVISGLPANTSTERLDILDDERRVTGFSIIGGEHRLTNYKSVTTVHRFEKENRIWTVVLESYVVDMPEGNSEDDTRMFVDTVVKLNLQKLATVAEAMARNSGDGSGSQVT
# modifications: N-terminal QS appendage for ITC; synthetic Arabidopsis PYR1 mutant A160V
# B2: E141V: PYR1 mutant E141V, SEQ ID NO:136 (protein)
# chain: B1 chain with E141V, V160A
# modifications: synthetic Arabidopsis PYR1 mutant E141V
# B3: A160I: PYR1 mutant A160I, SEQ ID NO:140 (protein)
# chain: B1 chain with V160I
# modifications: synthetic Arabidopsis PYR1 mutant A160I
# B4: V81I: PYR1 mutant V81I, SEQ ID NO:126 (protein)
# chain: B1 chain with V81I, V160A
# modifications: synthetic Arabidopsis PYR1 mutant V81I
# B5: E141M: PYR1 mutant E141M, SEQ ID NO:133 (protein)
# chain: B1 chain with E141M, V160A
# modifications: synthetic Arabidopsis PYR1 mutant E141M
# B6: E141L: PYR1 mutant E141L, SEQ ID NO:132 (protein)
# chain: B1 chain with E141L, V160A
# modifications: synthetic Arabidopsis PYR1 mutant E141L
# B7: V81Y: PYR1 mutant V81Y, SEQ ID NO:127 (protein)
# chain: B1 chain with V81Y, V160A
# modifications: synthetic Arabidopsis PYR1 mutant V81Y
# B8: E141N: PYR1 mutant E141N, SEQ ID NO:134 (protein)
# chain: B1 chain with E141N, V160A
# modifications: synthetic Arabidopsis PYR1 mutant E141N
# B9: E141I: PYR1 mutant E141I, SEQ ID NO:131 (protein)
# chain: B1 chain with E141I, V160A
# modifications: synthetic Arabidopsis PYR1 mutant E141I
# B10: E141C: PYR1 mutant E141C, SEQ ID NO:130 (protein)
# chain: B1 chain with E141C, V160A
# modifications: synthetic Arabidopsis PYR1 mutant E141C
# B11: F61L: PYR1 mutant F61L, SEQ ID NO:124 (protein)
# chain: B1 chain with F61L, V160A
# modifications: synthetic Arabidopsis PYR1 mutant F61L
# B12: I110C: PYR1 mutant I110C, SEQ ID NO:128 (protein)
# chain: B1 chain with I110C, V160A
# modifications: synthetic Arabidopsis PYR1 mutant I110C
# B13: F61M: PYR1 mutant F61M, SEQ ID NO:125 (protein)
# chain: B1 chain with F61M, V160A
# modifications: synthetic Arabidopsis PYR1 mutant F61M
# B14: E141W: PYR1 mutant E141W, SEQ ID NO:137 (protein)
# chain: B1 chain with E141W, V160A
# modifications: synthetic Arabidopsis PYR1 mutant E141W
# B15: A160C: PYR1 mutant A160C, SEQ ID NO:139 (protein)
# chain: B1 chain with V160C
# modifications: synthetic Arabidopsis PYR1 mutant A160C
# B16: E141Y: PYR1 mutant E141Y, SEQ ID NO:138 (protein)
# chain: B1 chain with E141Y, V160A
# modifications: synthetic Arabidopsis PYR1 mutant E141Y
# B17: E141T: PYR1 mutant E141T, SEQ ID NO:135 (protein)
# chain: B1 chain with E141T, V160A
# modifications: synthetic Arabidopsis PYR1 mutant E141T
# B18: I110S: PYR1 mutant I110S, SEQ ID NO:129 (protein)
# chain: B1 chain with I110S, V160A
# modifications: synthetic Arabidopsis PYR1 mutant I110S
# What was measured:
# HAB1 = assay: PYR1 mutant-HAB1 yeast two-hybrid assay under different ABA concentrations (X-gal staining); type: cell-based; details: lowest (+)-ABA concentration giving detectable X-gal staining; S. cerevisiae Y190 with pACT-HAB1; 30° C., 48 hours
# From the text: The affinity of a receptor for a target ligand is typically determined by non-covalent interactions between ligand-binding residues and the ligand. Mutations in such residues can have negative, positive or neutral effects on the strength of the receptor—ligand interaction. The affinity of a receptor-ligand interaction is intrinsically correlated with the concentration of ligand required to elicit biological effects, with high affinity ligands requiring lower concentrations relative to low affinity ligands. A mutant receptor with increased affinity for a ligand can in some cases elicit greater biological effect relative to a wild type receptor, when both are activated under identical conditions by the same concentration of activating ligand. Thus, mutations that make a receptor hypersensitive to a ligand can be useful for engineering organisms that elicit stronger responses to the ligand relative to wild type. […] Based on these considerations, we set out to systematically establish specific ABA receptor mutations that increase ABA responsiveness. This was done by testing a collection of PYR1 variants with all possible single amino acid substitution mutations in ligand binding residues. Thus we conducted site-saturated mutagenesis of ABA-contacting residues, which we define as those that are within 5A or ABA or ABA-contacting water residues in available X-ray coordinates. This collection of mutants was constructed previously, as described in PCT Application No. PCT/US2012/043121 and Mosquna et al., Proc Natl Acad Sci USA 108: 20838-20843 (2011). This collection of mutants was made by mutagenizing a previously described pBD GAL-PYR1 template (Park, S.-Y., et al. Science 324, 1068-1071 ([…])). In response to ABA, this particular plasmid encodes a fusion protein that binds to a co-expressed GAL4 activation domain-HAB1 fusion protein, encoded by the plasmid pACT-HAB1. This binding reconstitutes a functional GAL4 transcriptional activator and subsequent transcription of a β-galactosidase reporter gene, which in turn enables colorimetric based detection of agonist promoted receptor-PP2C interaction when lysed cells are exposed to the substrate X-gal. The mutant clones were individually transformed into S. cerevisiae strain Y190 containing pACT-HAB1. Yeast transformants were selected for the presence of plasmids on synthetic dextrose (SD) agar plates lacking Leu and Trp (SD-LT) and examined for PP2C interactions by using X-gal staining to monitor β-gal reporter gene expression levels. Individual clones were arrayed into 96 well plates and then spotted onto SD-LT lawn (i.e. one-well) plates containing 0, 0.5 or 5.0 μM (+)-ABA. Each assay plate contained 95 mutant clones and one wild type PYR1 positive control clone. The spotted cells were cultured at 30° C. for 48 hours after which they were lysed by chloroform and stained with an X-gal solution, as previously described (Park, S.-Y., et al. (2009) Science 324, 1068-1071). […] After this initial screening exercise, all positives clones were retested on plates containing […] and stained for galactosidase activity as described above. Mutant clones showing detectable staining on 0.5 μM (+)-ABA or lower were scored as hypersensitive mutants. FIG. 1 depicts results of PYR1 mutant-HAB1 interactions as assayed in a yeast two-hybrid assay under different ABA concentrations, with darker spots indicating increased interaction.
# [1] = previously measured, Dupeux et al. 2010; read-out: affinity of wild type PYR1 (Kd) measured using ITC; cited from earlier work
# [2] = isothermal titration calorimetry (ITC) of receptor-ABA binding; details: 600 μM (+)-ABA injected into 60 μM receptor; PBS, 1 mM 2-mercaptoethanol, 0.012% DMSO; single binding site model
# From the text: The ligand sensitivity of PYR1 and HAB1 yeast two hybrid strains generally correlates with receptor affinity. To examine if this was the case for the hypersensitive mutations identified by our functional screens, we conducted isothermal titration calorimetry (ITC) to measure the heat produced by a mutant receptor-ABA binding reaction and infer the ligand binding dissociation constant (Kd). […] The PYR1-A160V mutant receptor was expressed in E. coli BL21(DE3) as a fusion to the small ubiquitin like protein SUMO, using the vector pSUMO (LifeSensors, USA), which improves the solubility of proteins in E. coli and contains an NH2-terminal hexa-histidine tag that facilitates purification using immobilized metal affinity chromatography (IMAC). PYR1 A160V was cloned into pSUMO by using PCR product generated from a pBD-PYR1(A160V) yeast two hybrid construct as template, and sequence validated. A short flexible linker and tobacco etch virus (TEV) protease cleavage site (sequence NH2-[…]-COOH; SEQ ID NO:411) was incorporated in between the SUMO tag and the receptor to enable cleavage of the recombinant protein by TEV protease, which yields PYR1(A160V) plus an NH2-terminal QS appendage. […]
Kd [2],Molecule,Minimal conc. For ABA response (HAB1),Kd [1]
,"WT: Arabidopsis wildtype PYR1 ABA receptor, SEQ ID NO:1 [reference compound]",1 µM,97 ± 36 µM
1.5 µM,B1,0.25 µM,
,B2,0.5 µM,
,B3,0.25 µM,
,B4,0.25 µM,
,B5,0.25 µM,
,B6,0.25 µM,
,B7,0.25 µM,
,B8,0.5 µM,
,B9,0.25 µM,
,B10,0.5 µM,
,B11,0.25 µM,
,B12,0.25 µM,
,B13,0.25 µM,
,B14,0.5 µM,
,B15,0.25 µM,
,B16,0.25 µM,
,B17,0.5 µM,
,B18,0.5 µM,
